Laboratory results taken from publication PMC9482650, “Quantitative fragmentomics allow affinity mapping of interactomes” (Nature Communications, 2022).

T1: APBA2_1, Q99767
T1 sequence (Q99767 563-664, limits assumed, looked up): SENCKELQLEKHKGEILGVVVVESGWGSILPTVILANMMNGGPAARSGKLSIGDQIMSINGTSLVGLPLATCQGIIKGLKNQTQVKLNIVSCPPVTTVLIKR

T2: PTPN13_1, Q12923
T2 sequence (Q12923 1088-1188, limits assumed, looked up): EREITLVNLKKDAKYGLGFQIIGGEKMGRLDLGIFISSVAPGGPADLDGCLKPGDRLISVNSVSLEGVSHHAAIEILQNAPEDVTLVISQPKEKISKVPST

T3: MPDZ_10, O75970
T3 sequence (O75970 1624-1722, limits assumed, looked up): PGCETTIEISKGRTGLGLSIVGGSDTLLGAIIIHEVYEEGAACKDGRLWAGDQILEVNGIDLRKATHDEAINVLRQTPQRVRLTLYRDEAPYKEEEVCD

T4: PDZRN3_1, Q9UPQ7
T4 sequence (Q9UPQ7 244-349, limits assumed, looked up): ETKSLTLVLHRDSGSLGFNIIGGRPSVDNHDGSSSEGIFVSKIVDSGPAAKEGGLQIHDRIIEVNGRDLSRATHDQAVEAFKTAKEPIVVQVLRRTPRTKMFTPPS

T5: DFNB31_1, Q9P202
T5 sequence (Q9P202 135-233, limits assumed, looked up): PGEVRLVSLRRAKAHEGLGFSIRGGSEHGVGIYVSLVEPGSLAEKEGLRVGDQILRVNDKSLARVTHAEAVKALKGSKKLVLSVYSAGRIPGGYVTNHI

T6: TIAM2, Q8IVF5
T6 sequence (Q8IVF5 885-986, limits assumed, looked up): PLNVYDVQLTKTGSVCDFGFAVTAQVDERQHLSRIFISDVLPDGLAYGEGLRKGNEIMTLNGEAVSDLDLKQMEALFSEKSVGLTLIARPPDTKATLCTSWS

T7: NHERF3_1, Q5T2W1
T7 sequence (Q5T2W1 4-100, limits assumed, looked up): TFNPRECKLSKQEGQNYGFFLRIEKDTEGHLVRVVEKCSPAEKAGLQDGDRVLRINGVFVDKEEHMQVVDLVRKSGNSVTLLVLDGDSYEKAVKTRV

T8: PARD3B_1, Q8TEW8
T8 sequence (Q8TEW8 196-299, limits assumed, looked up): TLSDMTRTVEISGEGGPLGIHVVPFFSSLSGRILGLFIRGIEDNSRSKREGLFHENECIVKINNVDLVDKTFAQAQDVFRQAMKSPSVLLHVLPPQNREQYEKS

T9: APBA2_2, Q99767
T9 sequence (Q99767 654-744, limits assumed, looked up): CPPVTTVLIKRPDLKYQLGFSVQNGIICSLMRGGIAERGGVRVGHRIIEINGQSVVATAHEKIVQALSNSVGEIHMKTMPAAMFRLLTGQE

T10: GRIP1_2, Q9Y3R0
T10 sequence (Q9Y3R0 145-248, limits assumed, looked up): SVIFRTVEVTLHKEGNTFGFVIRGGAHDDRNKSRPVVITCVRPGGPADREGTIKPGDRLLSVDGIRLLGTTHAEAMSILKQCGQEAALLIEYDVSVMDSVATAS

T11: SNTG2, Q9NY99
T11 sequence (Q9NY99 68-166, limits assumed, looked up): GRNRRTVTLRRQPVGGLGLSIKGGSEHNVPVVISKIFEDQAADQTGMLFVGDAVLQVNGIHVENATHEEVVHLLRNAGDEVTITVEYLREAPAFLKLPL


Columns and labels:
Experiment in all cases: holdup assay
Design in all cases: key: below the threshold = too weak to quantify, mostly under pKd 3.1 to 4
Details in all cases: plain residues with an end cap or a label only (N-terminal biotin on a linker: ado-ado)
[1] = biological target: T1, APBA2_1, Q99767
[2] = biological target: FRMPD3, Q5JV73
[3] = biological target: T2, PTPN13_1, Q12923
[4] = biological target: FRMPD2_3, Q68DX3
[5] = biological target: PARD3_3, Q8TEW0
[6] = biological target: NHERF2_2, Q15599
[7] = biological target: T3, MPDZ_10, O75970
[8] = biological target: T4, PDZRN3_1, Q9UPQ7
[9] = biological target: T5, DFNB31_1, Q9P202
[10] = biological target: DLG4_1, P78352
[11] = biological target: T6, TIAM2, Q8IVF5
[12] = biological target: T7, NHERF3_1, Q5T2W1
[13] = biological target: Inadl_2, Q8NI35
[14] = biological target: GORASP1, Q9BQQ3
[15] = biological target: LNX1_1, Q8TBB1
[16] = biological target: MAGI1_1, Q96QZ7
[17] = biological target: LNX1_2, Q8TBB1
[18] = biological target: T8, PARD3B_1, Q8TEW8
[19] = biological target: HTRA2, O43464
[20] = biological target: T9, APBA2_2, Q99767
[21] = biological target: GRIP2_5, Q9C0E4
[22] = biological target: GRIP2_3, Q9C0E4
[23] = biological target: GRIP2_4, Q9C0E4
[24] = biological target: LAP2, Q96RT1
[25] = biological target: GRIP2_6, Q9C0E4
[26] = biological target: T10, GRIP1_2, Q9Y3R0
[27] = biological target: T11, SNTG2, Q9NY99

Sequence of FRMPD2_3, Q68DX3 (Q68DX3 1073-1166): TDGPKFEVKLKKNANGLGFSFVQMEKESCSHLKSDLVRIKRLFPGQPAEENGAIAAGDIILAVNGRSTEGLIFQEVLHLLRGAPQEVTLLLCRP
Sequence of LNX1_2, Q8TBB1 (Q8TBB1 371-470): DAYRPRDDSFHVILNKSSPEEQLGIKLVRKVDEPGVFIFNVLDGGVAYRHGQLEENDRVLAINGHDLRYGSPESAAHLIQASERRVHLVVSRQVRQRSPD
Sequence of GRIP2_5, Q9C0E4 (Q9C0E4 544-642): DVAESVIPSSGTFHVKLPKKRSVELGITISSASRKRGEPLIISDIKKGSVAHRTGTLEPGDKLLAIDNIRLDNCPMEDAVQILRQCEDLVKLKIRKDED
Sequence of MAGI1_1, Q96QZ7 (Q96QZ7 1-106): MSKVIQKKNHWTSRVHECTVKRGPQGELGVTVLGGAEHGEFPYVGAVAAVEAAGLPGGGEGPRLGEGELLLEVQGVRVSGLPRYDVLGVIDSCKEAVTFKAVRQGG
Sequence of LNX1_1, Q8TBB1 (Q8TBB1 261-371): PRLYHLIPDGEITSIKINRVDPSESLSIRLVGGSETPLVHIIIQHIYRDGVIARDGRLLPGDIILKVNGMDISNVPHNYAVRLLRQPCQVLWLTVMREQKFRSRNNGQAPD
Sequence of LAP2, Q96RT1 (Q96RT1 other isoform, or with tags, fused parts or gaps): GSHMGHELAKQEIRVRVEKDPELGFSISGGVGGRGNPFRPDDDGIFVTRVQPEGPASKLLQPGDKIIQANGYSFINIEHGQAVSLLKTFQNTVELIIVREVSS
Sequence of GORASP1, Q9BQQ3 (Q9BQQ3 1-208): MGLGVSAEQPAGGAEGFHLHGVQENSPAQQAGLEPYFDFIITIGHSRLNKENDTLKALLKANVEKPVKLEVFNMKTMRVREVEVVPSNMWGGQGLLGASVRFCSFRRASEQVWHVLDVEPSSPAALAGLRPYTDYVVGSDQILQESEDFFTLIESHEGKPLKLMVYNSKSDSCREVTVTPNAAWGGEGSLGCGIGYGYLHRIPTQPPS
Sequence of NHERF2_2, Q15599 (Q15599 142-238): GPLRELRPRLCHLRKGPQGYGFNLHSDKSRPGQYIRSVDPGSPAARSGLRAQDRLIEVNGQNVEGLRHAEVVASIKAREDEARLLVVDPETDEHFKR
Sequence of DLG4_1, P78352 (P78352 62-152): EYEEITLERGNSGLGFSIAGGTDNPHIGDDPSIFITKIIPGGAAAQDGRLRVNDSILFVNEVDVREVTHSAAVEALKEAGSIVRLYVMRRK
Sequence of GRIP2_3, Q9C0E4 (Q9C0E4 238-339): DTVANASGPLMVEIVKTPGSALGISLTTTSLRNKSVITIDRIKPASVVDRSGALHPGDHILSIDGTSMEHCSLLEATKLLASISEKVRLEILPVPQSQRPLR
Sequence of Inadl_2, Q8NI35 (Q8NI35 238-335): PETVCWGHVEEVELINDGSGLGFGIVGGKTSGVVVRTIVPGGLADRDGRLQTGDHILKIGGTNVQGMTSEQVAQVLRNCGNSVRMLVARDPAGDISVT
Sequence of HTRA2, O43464 (O43464 355-458): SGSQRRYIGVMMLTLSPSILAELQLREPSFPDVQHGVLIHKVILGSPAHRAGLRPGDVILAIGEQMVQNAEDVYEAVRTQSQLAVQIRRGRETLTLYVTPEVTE
Sequence of GRIP2_6, Q9C0E4 (Q9C0E4 648-740): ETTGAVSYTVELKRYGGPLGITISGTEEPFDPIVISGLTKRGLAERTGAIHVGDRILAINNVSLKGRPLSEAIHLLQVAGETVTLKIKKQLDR
Sequence of GRIP2_4, Q9C0E4 (Q9C0E4 446-548): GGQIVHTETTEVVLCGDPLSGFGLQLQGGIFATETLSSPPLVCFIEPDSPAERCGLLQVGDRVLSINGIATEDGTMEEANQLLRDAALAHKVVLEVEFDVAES
Sequence of PARD3_3, Q8TEW0 (Q8TEW0 582-685): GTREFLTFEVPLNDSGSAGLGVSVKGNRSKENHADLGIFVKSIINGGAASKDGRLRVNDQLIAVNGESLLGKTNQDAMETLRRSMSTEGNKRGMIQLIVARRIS
Sequence of FRMPD3, Q5JV73 (Q5JV73 12-100): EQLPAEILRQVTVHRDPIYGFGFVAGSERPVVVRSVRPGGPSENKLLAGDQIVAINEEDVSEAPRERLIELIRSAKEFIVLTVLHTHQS

| Binder | pKd [1] | pKd [2] | pKd [3] | pKd [4] | pKd [5] | pKd [6] | pKd [7] | pKd [8] | pKd [9] | pKd [10] | pKd [11] | pKd [12] | pKd [13] | pKd [14] | pKd [15] | pKd [16] | pKd [17] | pKd [18] | pKd [19] | pKd [20] | other results |
| --- | --- | --- | --- | --- | --- | --- | --- | --- | --- | --- | --- | --- | --- | --- | --- | --- | --- | --- | --- | --- | --- |
| FVFESRKEIL [TBPL1, P62380] | below the threshold | below the threshold | below the threshold | below the threshold | below the threshold | below the threshold | below the threshold | below the threshold | below the threshold | below the threshold | below the threshold | below the threshold | below the threshold | 3.57 | below the threshold | below the threshold | below the threshold | 4.12 | below the threshold | below the threshold | pKd [21]: below the threshold; pKd [22]: below the threshold; pKd [23]: below the threshold; pKd [24]: below the threshold; pKd [25]: below the threshold; pKd [26]: below the threshold; pKd [27]: below the threshold |
| PLATCDETSI [SEMA4F, O95754] | below the threshold | below the threshold | below the threshold | below the threshold | 3.9 | 4.31 | below the threshold | 4.03 | 5.13 | below the threshold | 4.08 | 3.74 | below the threshold | below the threshold | below the threshold | below the threshold | below the threshold | below the threshold | below the threshold | below the threshold | pKd [21]: below the threshold; pKd [22]: below the threshold; pKd [23]: below the threshold; pKd [24]: below the threshold; pKd [25]: below the threshold; pKd [26]: below the threshold; pKd [27]: 4.55 |
| GTMFLRETSL [GUCY1A2, P33402] | below the threshold | below the threshold | below the threshold | below the threshold | below the threshold | 4.56 | 3.67 | 6.34 | 4.85 | 4.03 | 3.66 | 5.64 | below the threshold | below the threshold | 3.73 | below the threshold | below the threshold | 3.88 | below the threshold | below the threshold | pKd [21]: below the threshold; pKd [22]: below the threshold; pKd [23]: below the threshold; pKd [24]: 3.85; pKd [25]: below the threshold; pKd [26]: below the threshold; pKd [27]: 5.27 |
| IKLETKKTKL [SLC15A2, Q16348] | 3.5 | below the threshold | 3.56 | below the threshold | below the threshold | 4.32 | below the threshold | below the threshold | 3.79 | 3.69 | below the threshold | 4.7 | below the threshold | below the threshold | 3.79 | below the threshold | below the threshold | 3.77 | 3.52 | 3.52 | pKd [21]: 3.58; pKd [22]: below the threshold; pKd [23]: below the threshold; pKd [24]: below the threshold; pKd [25]: 3.48; pKd [26]: below the threshold; pKd [27]: 3.62 |
| GQNMTVSVVI [PRLHR, P49683] | below the threshold | below the threshold | below the threshold | below the threshold | 4.1 | 3.69 | below the threshold | below the threshold | below the threshold | below the threshold | 4.2 | below the threshold | below the threshold | 4.28 | 3.47 | 4.22 | 3.54 | 4.86 | below the threshold | below the threshold | pKd [21]: below the threshold; pKd [22]: below the threshold; pKd [23]: below the threshold; pKd [24]: below the threshold; pKd [25]: 4.15; pKd [26]: below the threshold; pKd [27]: below the threshold |
